Experiments:
[1] = molecular target: T1, His-tag camel-derived nanobody AS718 VHH-His (camel-derived); assay: indirect ELISA, AS718 VHH-His coated, hybridoma supernatant
T1 construct: Immunogen; recombinantly expressed with a C-terminal His tag; also called immunogen AS718; immunogen AS718 VHH-His; not shown: C-terminal His tag
Procedure: The rabbit spleen was extracted and homogenized to produce a single-cell suspension, and a single-cell suspension of myeloma cells was prepared at the same time. 1.0×10⁸ splenocytes were fused with 1.2×10⁵ myeloma cells by electrofusion; the fused cells were resuspended in 100 ml of DMEM/10% FBS culture medium containing hybridoma selective agents, thymidine, hypoxanthine and aminopterin, and transferred to a 150×96-well plate in a volume of 100 μl with a pipette; and the plate was incubated at 37° C. in 6% CO₂. After 9 days of incubation, the indirect ELISA was used to evaluate the binding ability of the antibody in the supernatant to VHH-His, indicating the presence of the antibody to VHH-His.
The ELISA plate was coated with 100 μl/well of 0.5 μg/ml VHH-His or His protein in PBS at 4° C. overnight; the plate was washed with PBS-T (0.05% Tween20) and blocked with 200 μl/well of PBST containing 1% BSA at 37° C. for 0.5 hours; the blocking solution was aspirated and discarded, and 100 μl of hybridoma cell culture supernatant was added to each well and then incubated at room temperature for 1 hour; after the incubation, the supernatant was discarded, and the plate was washed three times with PBST and incubated with 100 μl/well of goat anti-rabbit IgG conjugated with horseradish peroxidase (GenScript Goat Anti-Rabbit IgG Antibody (H&L) [HRP], pAb; CAT #: A00098) at 37° C. for 0.5 hours; the plate was washed five times with PBST, and then a TMB color developing solution was added; and the plate was incubated in the dark at room temperature for 15 minutes. The reaction was stopped by adding 50 μl of 1 M HCl stop solution. The plate was read at 450 nm using a microplate reader. In FIG. 3, by the mode of indirect ELISA, immunogen AS718 VHH-His was used to coat the ELISA detection plate, and the titers of the supernatant stock solutions of 15 parent clones were detected by OD450 reading, and the cross-reactions thereof with the His-tag protein were detected at the same time to exclude non-specific combinations. In the experiment, the positive serum was used as a positive control for immunogen AS718 VHH-His, and the Anti-His antibody was used as a positive control for detection target His-tag protein in the reverse screening. The detection value greater than 0.5 was determined to be positive, and the detection value less than 0.2 was determined to be negative.

[2] = molecular target: T2, AS200 VHH (camel-derived); assay: indirect ELISA, VHH coated
T2 construct: One of the 10 different camel-derived nanobodies; not shown: His tag (VHH-His)
Procedure: (§1) The ELISA plate was coated with 10 different VHHs at […] in 100 μl/well of PBS at 4° C. overnight, respectively; the plate was washed with PBS-T (0.05% Tween) and blocked with 200 μl/well of PBST containing 1% BSA at 37° C. for 0.5 hours; the blocking solution was aspirated and discarded, and 100 μl of 1 μg/ml purified antibodies were added to the first well, diluted in a 3-fold gradient for a total of 11 test concentration gradients and incubated at room temperature for 1 hour; the plate was washed three times with PBST and incubated with 100 μl/well of goat anti-rabbit IgG conjugated with horseradish peroxidase (GenScript Goat Anti-Rabbit IgG Antibody (H&L) [HRP], pAb; CAT #: A00098) at 37° C. for 0.5 hours; the plate was washed five times with PBST, and then a TMB color developing solution was added; and the plate was incubated in the dark at room temperature for 15 minutes. The reaction was stopped by adding 50 μl of 1 M HCl stop solution. The plate was read at 450 nm using a microplate reader; and the binding abilities of 15 clones to VHH-His were obtained (as shown in FIGS. 6a and 6b). […] On one hand, the affinities of the antibody of the same camel-derived nanobody to different camel-derived nanobodies were different; on the other hand, the affinities of different antibodies of camel-derived nanobodies to the same camel-derived nanobody were different. However, on the whole, all the 15 purified antibodies can be recognized with 10 different camel-derived nanobodies.

[3] = molecular target: T3, AS588 VHH (camel-derived); assay: indirect ELISA, VHH coated
T3 construct: One of the 10 different camel-derived nanobodies; not shown: His tag (VHH-His)
Procedure: as §1

[4] = molecular target: T4, AS675 VHH (camel-derived); assay: indirect ELISA, VHH coated
T4 construct: One of the 10 different camel-derived nanobodies; not shown: His tag (VHH-His)
Procedure: as §1

[5] = molecular target: T5, AS325 VHH (camel-derived); assay: indirect ELISA, VHH coated
T5 construct: One of the 10 different camel-derived nanobodies; not shown: His tag (VHH-His)
Procedure: as §1

[6] = molecular target: T6, AS988 VHH (camel-derived); assay: indirect ELISA, VHH coated
T6 construct: One of the 10 different camel-derived nanobodies; not shown: His tag (VHH-His)
Procedure: as §1

[7] = molecular target: T7, AS519 VHH (camel-derived); assay: indirect ELISA, VHH coated
T7 construct: One of the 10 different camel-derived nanobodies; not shown: His tag (VHH-His)
Procedure: as §1

[8] = molecular target: T8, AS656 VHH (camel-derived); assay: indirect ELISA, VHH coated
T8 construct: One of the 10 different camel-derived nanobodies; not shown: His tag (VHH-His)
Procedure: as §1

[9] = molecular target: T9, AS673 VHH (camel-derived); assay: indirect ELISA, VHH coated
T9 construct: One of the 10 different camel-derived nanobodies; not shown: His tag (VHH-His)
Procedure: as §1

[10] = molecular target: T10, AS154 VHH (camel-derived); assay: indirect ELISA, VHH coated
T10 construct: One of the 10 different camel-derived nanobodies; not shown: His tag (VHH-His)
Procedure: as §1

[11] = molecular target: T11, AS587 VHH (camel-derived); assay: indirect ELISA, VHH coated
T11 construct: One of the 10 different camel-derived nanobodies; not shown: His tag (VHH-His)
Procedure: as §1

Measured: binding result

T3 sequence (VHH, as listed by the source): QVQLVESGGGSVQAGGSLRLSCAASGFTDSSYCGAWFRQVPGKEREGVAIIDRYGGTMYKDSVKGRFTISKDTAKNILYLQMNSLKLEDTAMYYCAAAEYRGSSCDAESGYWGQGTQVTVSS
T10 sequence (VHH, as listed by the source): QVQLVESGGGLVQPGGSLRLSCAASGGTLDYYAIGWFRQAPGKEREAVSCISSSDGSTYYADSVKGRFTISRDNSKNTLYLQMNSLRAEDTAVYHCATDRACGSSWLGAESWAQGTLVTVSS
T2 sequence (VHH, as listed by the source): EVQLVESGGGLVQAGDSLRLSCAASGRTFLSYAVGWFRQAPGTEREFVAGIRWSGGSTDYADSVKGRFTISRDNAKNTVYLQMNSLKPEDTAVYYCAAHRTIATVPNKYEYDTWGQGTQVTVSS
T5 sequence (VHH, as listed by the source): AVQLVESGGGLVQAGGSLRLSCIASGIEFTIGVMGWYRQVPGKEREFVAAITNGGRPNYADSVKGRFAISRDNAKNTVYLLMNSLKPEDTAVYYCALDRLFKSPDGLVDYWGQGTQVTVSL
T9 sequence (VHH, as listed by the source): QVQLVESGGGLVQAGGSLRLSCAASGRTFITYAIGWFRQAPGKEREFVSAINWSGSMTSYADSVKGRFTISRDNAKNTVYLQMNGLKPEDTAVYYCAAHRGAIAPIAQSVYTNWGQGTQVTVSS
T6 sequence (VHH, as listed by the source): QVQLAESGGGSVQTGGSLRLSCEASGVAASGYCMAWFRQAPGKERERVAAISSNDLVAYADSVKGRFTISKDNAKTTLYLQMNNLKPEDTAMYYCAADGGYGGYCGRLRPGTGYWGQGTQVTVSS
T7 sequence (VHH, as listed by the source): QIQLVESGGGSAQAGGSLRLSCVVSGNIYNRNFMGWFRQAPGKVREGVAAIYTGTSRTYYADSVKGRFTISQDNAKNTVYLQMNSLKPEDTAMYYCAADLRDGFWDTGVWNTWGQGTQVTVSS
T8 sequence (VHH, as listed by the source): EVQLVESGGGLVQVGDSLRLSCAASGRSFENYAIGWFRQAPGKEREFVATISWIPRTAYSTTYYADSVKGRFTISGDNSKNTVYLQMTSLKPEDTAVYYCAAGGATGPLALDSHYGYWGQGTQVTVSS
T1 sequence (VHH, as listed by the source): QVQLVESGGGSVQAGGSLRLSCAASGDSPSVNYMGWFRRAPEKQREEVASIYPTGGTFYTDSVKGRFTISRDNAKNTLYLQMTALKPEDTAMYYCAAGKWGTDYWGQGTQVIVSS
T11 sequence (VHH, as listed by the source): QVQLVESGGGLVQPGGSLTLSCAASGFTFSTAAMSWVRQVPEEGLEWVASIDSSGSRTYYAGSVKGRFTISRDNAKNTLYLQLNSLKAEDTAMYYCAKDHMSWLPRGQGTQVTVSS
T4 sequence (VHH, as listed by the source): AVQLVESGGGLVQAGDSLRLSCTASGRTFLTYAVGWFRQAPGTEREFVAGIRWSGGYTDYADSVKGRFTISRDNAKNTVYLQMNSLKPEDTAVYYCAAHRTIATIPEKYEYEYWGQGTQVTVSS

B1: R166.A5 (antibody, V domains shown)
VH: QSVEESGGRLVTPGTPLTLTCTVSGFSLNNYTVIWVRQAPGKGLEWIGIIFGSGGTYYATWAEGRFTISRTSTTVDLKMTSPTTEDTATYFCARGYFGNTFWAMDPWGPGTLVTVSS
VL: NIVMTQTPASVSGAVGGTVTIKCQASQSISTYLSWYQQKPGQPPKLLIYQASELAYGVSSRFKGSGSGTEFTLTISGVECADAATYYCQQGYSDINVDNFFGGGTEVVVKG
notes: Rabbit monoclonal; also called clone R166.A5; antibody clone R166.A5
binds: all assays above

B2: R166.E3 (antibody, V domains shown)
VH: QSLEESGGRLVTPGTPLTLTCTVSGIDLSSCVLIWVRQAPEKGLEWIGFIYGSGNAYYANWAKGRFTISKTSSTTVDLKITSPTTEDTATYFCARSQEDDSFGYGFNLWGQGTLVTVSS
VL: AYDMTQTPASVEVAVGGTVTINCQASQSIGTYLSWYQQKPGQPPKLLIYRASTLTSGVSSRFKGSGSGTQFTLTISGVECADAATYYCQEGYSDINVNNIFGGGTEVVVKG
notes: Rabbit monoclonal; also called clone R166.E3
binds: all assays above

B3: R166.E5 (antibody, V domains shown)
VH: QSLEESGGRLVTPGTPLTLTCTASGFSLSGYYMIWVRQAPGKGLEYIGIVTSSGSTHYASWANGRFAISKTSSTTVDLKMPSLTTEDTATYFCAREGGWAFDLWGQGTLVTVSS
VL: QVLTQTPFSVSTAVGGTVTINCQSSESVANSNWLSWYQQKPGQPPKLLIYWASKLASGVPSRFSGSGSGTQFTLTISGVQCADAATYYCQGGYTSDRRAFGGGTEVVVKG
notes: Rabbit monoclonal; also called clone R166.E5
binds: all assays above

B4: R166.H9 (antibody, V domains shown)
VH: QSLEESGGRLVTPGTPLTLTCTASGFSLNNYNMIWVRQAPGEGLEWIGMIGDGDDAAWYASWAKGRFTISKTSTTVDLEVTSLTTEDTAIYFCARYLSFTRLDLWGQGTLVTVSS
VL: AVLTQTPSPVSAAVGGTVTINCQSSQSVYHNNWLAWYQQKPGQPPKLLIYGAATLASGVPSRFKGSGSGTQFTFTITDVQCDDVGTYYCAGVYNDDSENAFGGGTEVVVKG
notes: Rabbit monoclonal; also called clone R166.H9
binds: all assays above

B5: R166.G3 (antibody, V domains shown)
VH: QSVEESGGRLVTPGTPLTLTCTVSGIDLSRYAMGWVRQAPGKGLEYIGIIGYGGNTNYANWAKGRFTISKTSSTTVDLKMTSPTTEDTATYFCARDNKSGGNNGYPYYGLDLWGPGTLVTVSS
VL: AYDMTQTPASVEVPVGGTVTINCQASQSISSHLAWYQQKRGQPPKVLIYYASTLASGVSSRFKGSGSGTEYTLTISGVECADAATYFCHQSYSGSDVDNTFGGGTEVVVRG
notes: Rabbit monoclonal; also called clone R166.G3
binds: all assays above

B6: R166.G10 (antibody, V domains shown)
VH: QSVEESGGRLVTPGTPLTLTCTVSGFSLSSSAVSWVRQAPGKGLEYIGIIGSGGSTYYASWVNGRFTISKTSTTVDLKMTSLTAADTATYFCARYGGNSGGYDSFNLWGQGTLVTVSS
VL: DVVMTQTPASVSEPVGGTVTIKCQASQSIYSHLSWYQQKPGQPPKLLIHGASTLASGASSRFKASGSGTEFTLTISDLECADAATYYCQCTAGTSIYGNAFGGGTEVVVRG
notes: Rabbit monoclonal; also called clone R166.G10
binds: all assays above

B7: R166.D1 (antibody, V domains shown)
VH: QSVEESGGRLVKPDESLTLTCTVSGFSLSNYDMIWVRQAPGKGLEWIGVIYPTGTTYYANWVKGRFTISKTSTTVGLLITSPTTEDTATYFCARKPILYVDSSGWYIDLWGQGTLVTVSS
VL: AYDMTQTPSSVSAAVGGTVSIKCQASENINNYLSWYQQKPGQPPKLLIYQASRLASAVPSRFKGSGSGTQFTLTIDDLECADAATYYCQQGHSVSNDVGNVFGGGTEVVVKG
notes: Rabbit monoclonal; also called clone R166.D1
binds: all assays above

B8: R166.H10 (antibody, V domains shown)
VH: QSLEESGGRLVTPGTPLTLTCTASGFSLSSYWMSWVRQAPGKGLEYIGIISGSGSTYYATWAKGRFTISKTSSTTVDLKITSPTTEDTATYFCARGNPHYSFGFNIWGPGTLVTVSL
VL: DIVMTQTPASVSEPVGGTVTINCQASESIYSWLSWYQQKPGQPPKLLIYSASYLASGVPSQFRGSGSGTEYTLTISDLECADAATYYCQYNYDSGDGITNGFGGGTEVVVKG
notes: Rabbit monoclonal; also called clone R166.H10
binds: all assays above

— patent US20220281997A1 (NANJING GENSCRIPT BIOTECH, published 2022)
